Test results published in IntAct's records for PubMed 24530283.

Biological target: fos_mouse Fos (UniProt P01101)
Sequence (P01101 whole entry): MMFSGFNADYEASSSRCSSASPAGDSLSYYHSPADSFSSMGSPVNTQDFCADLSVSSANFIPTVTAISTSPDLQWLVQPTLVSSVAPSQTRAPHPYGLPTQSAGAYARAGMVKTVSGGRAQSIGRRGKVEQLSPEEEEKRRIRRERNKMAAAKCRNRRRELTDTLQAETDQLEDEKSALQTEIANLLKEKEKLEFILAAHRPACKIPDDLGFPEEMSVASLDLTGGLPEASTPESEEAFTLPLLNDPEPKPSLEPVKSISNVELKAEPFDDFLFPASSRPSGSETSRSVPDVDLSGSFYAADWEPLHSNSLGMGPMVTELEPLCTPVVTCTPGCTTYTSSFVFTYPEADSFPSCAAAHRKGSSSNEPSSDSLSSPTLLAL

Transcription factor MafB (Mus musculus), P54841 E269R, sequence (P54841 whole entry E269R): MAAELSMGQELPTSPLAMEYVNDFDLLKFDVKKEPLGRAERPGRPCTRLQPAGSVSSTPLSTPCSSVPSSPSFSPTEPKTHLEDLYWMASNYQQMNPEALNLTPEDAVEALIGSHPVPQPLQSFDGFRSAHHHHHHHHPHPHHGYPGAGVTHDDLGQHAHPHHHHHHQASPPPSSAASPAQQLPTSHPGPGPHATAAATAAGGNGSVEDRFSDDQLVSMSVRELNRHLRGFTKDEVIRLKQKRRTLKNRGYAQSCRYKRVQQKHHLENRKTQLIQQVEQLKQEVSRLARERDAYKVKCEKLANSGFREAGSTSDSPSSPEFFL
Transcription factor MafB (Mus musculus), P54841 V277N, sequence (P54841 whole entry V277N): as the sequence (P54841 whole entry E269R) above, with R269E, V277N counted along it

effect of a mutation on the interaction	Substance
disrupting interaction strength	Transcription factor MafB (Mus musculus), P54841 V277N
increasing interaction strength	Transcription factor MafB (Mus musculus), P54841 E269R
